Substrate in data set [1]: CC[C@H](C)C(=O)C(=O)O
Description: purified protein. The conditions noted are these: 10 mM L-glutamate, 0.1 M Tris-HCl pH 8, 0.1 mM PLP, 70°C.

Substrate in data set [2]: CC(C)CC(=O)C(=O)O
Description: purified protein. The note with it: 10 mM L-glutamate, 0.1 M Tris-HCl pH 8, 0.1 mM PLP, 70°C.

Substrate in data set [3]: CC(C)C(=O)C(=O)O
Description: purified protein. The note with it: 10 mM L-glutamate, 0.1 M Tris-HCl pH 8, 0.1 mM PLP, 70°C.

Substrate in data set [4]: O=C(O)CCC(=O)C(=O)O
Put plainly: steady-state kinetics, GluDH-coupled discontinuous assay. It counts as biochemical, Geoglobus acetivorans. The note with it: 5 mM L-Leu co-substrate, 50 mM phosphate pH 8.0, 100 mM NaCl, 60 μM PLP, 65°C. The source says:
steady-state kinetics, GluDH-coupled discontinuous assay on GEO1900 | For GEO1900 the extrapolated Vmax and Km values for pyruvate and AKG were […]

Substrate in data set [5]: CC(=O)C(=O)O
Put plainly: steady-state kinetics of overall transamination, Michaelis-Menten fit. It counts as biochemical, Geoglobus acetivorans. The note with it: 5 mM L-Leu co-substrate; extrapolated. The source says: steady-state kinetics of overall transamination, Michaelis-Menten fit on GEO1900 | For GEO1900 the extrapolated Vmax and Km values for pyruvate and AKG were […]

B1: AF0933 (Archaeoglobus fulgidus DSM 4304) (protein)
chain: MLYVYMDGEFVPENEAKVSIFDHGFLYGDGVFEGIRAYNGRVFRLKEHIDRLYDSAKAIDLEIPITKEEFMEIILETLRKNNLRDAYIRPIVTRGIGDLGLDPRKCQNPSIIVITKPWGKLYGDLYEKGLTAITVAVRRNSFDALPPNIKSLNYLNNILAKIEANAKGGDEAIFLDRNGYVSEGSGDNIFVVKNGAITTPPTINNLRGITREAVIEIINRLGIPFKETNIGLYDLYTADEVFVTGTAAEIAPIVVIDGRKIGDGKPGEITRKLMEEFSKLTESEGVPIYE
In the case of B1, in the data set “purified protein [1]”, the Km was 0.13 mM, the maximal velocity (Vmax) is 3.9 µmol/min/mg and the kcat/Km was found to be 17700 M⁻¹ s⁻¹. For the same protein, in “purified protein [2]”, the Km was found to be 0.25 mM, the Vmax worked out at 5.5 µmol/min/mg and the kcat/Km was 13000 M⁻¹ s⁻¹. Moreover, in “purified protein [3]”, the Km amounted to 0.42 mM, the Vmax was determined as 6.3 µmol/min/mg and the kcat/Km was found to be 8850 M⁻¹ s⁻¹.

B2: GEO1900 (Geoglobus acetivorans) (protein)
chain: MSELLVYMNGEFVPESQAKVSVFDHGFLYGDGVFEGIRAYNGKVFKLYEHIDRLYDCARVIDLKIPLSKEEFAEAILETLRRNNLRDAYIRPIVTRGAGDLGLDPRKCPSPNVIIITKPWGKLYGDLYEKGLKAITVAIRRNAIDSLPPNIKSLNYLNNILAKIEANAKGGDEAIFLDHNGYISEGSGDNIFIVKNGTITTPPTLNNLKGITRQVVIELINELEIPFREANIGLFDLYSADEIFVTGTAAEIAPVTYIDGRTVGNGKPGKVTKMLMEKFRERTENEGVEIYR
notes: mainly homodimer in solution, hexamer in crystal; catalytic Lys152
On to B2, for which the Km in data set [4] was 1.9 ± 0.6 mM; in data set [5], 10.6 ± 1.9 mM.

The values above are taken from PMC6353796, “Thermostable Branched-Chain Amino Acid Transaminases From the Archaea Geoglobus acetivorans and Archaeoglobus fulgidus: Biochemical and Structural Characterization” (Frontiers in Bioengineering and Biotechnology, 2019).
